Experimental data published in paper PMC11263391 (Nature Communications, 2024).

B1: DDA3-degron 23-residue peptide (peptide)
peptide: SPEKLEEILDEANRLAAQLEQCAL
notes: DDA3; the region covering residues 70-93 was named as the potential degron and a 23-residue peptide was synthesized; residues 70-93 are 24 residues, the peptide is said to have 23; also called DDA3 residues 70–93; source: synthetic peptide (Shanghai Apeptide Co., Ltd.)
B2: GIGYF1 degron peptide (peptide)
peptide: EDDEGLKHLQQEAEKLVASLQDS
notes: stretch of GIGYF1, a reported ASB7 substrate; source: synthetic peptide (Shanghai Apeptide Co., Ltd.)
B3: DDA3 degron peptide (peptide)
peptide: PEKLEEILDEANRLAAQLEQCAL
notes: stretch of DDA3; the text names the region as residues 70-93 (24 residues) and the peptide as 23 residues; also called DDA3 peptide; source: synthetic peptide (Shanghai Apeptide Co., Ltd.)
B4: LZTS1 degron peptide Y19R (peptide)
peptide: RQELESLMKEQDLLETKLRSRER
notes: numbers count on: the degron, E1 = third letter of the 23-residue peptide; source: synthetic peptide (Shanghai Apeptide Co., Ltd.)
B5: LZTS1 degron peptide, 21 residues (RQELESLMKEQDLLETKLRSY) (peptide)
peptide: RQELESLMKEQDLLETKLRSY
notes: LZTS1 degron shortened by two residues at the C-terminus; source: synthetic peptide (Shanghai Apeptide Co., Ltd.)
B6: LZTS1 degron peptide, 21 residues (ELESLMKEQDLLETKLRSYER) (peptide)
peptide: ELESLMKEQDLLETKLRSYER
notes: LZTS1 degron shortened by two residues at the N-terminus; source: synthetic peptide (Shanghai Apeptide Co., Ltd.)
B7: LZTS1 degron peptide, 17 residues (ELESLMKEQDLLETKLR) (peptide)
peptide: ELESLMKEQDLLETKLR
notes: LZTS1 degron, positions E1 to R17 of the degron numbering; also called 17-residue degron; source: synthetic peptide (Shanghai Apeptide Co., Ltd.)
B8: CCDC17 degron peptide (peptide)
peptide: LEQEIRELQAEAGRTRGALEVLG
notes: stretch of CCDC17, a reported ASB7 substrate; also called CCDC17 peptide; source: synthetic peptide (Shanghai Apeptide Co., Ltd.)
B9: CEP152 degron peptide (peptide)
peptide: ELEKAKQECQDLKGKLEKCCRH
notes: stretch of CEP152, a reported ASB7 substrate; source: synthetic peptide (Shanghai Apeptide Co., Ltd.)
B10: CLIP2 degron peptide (peptide)
peptide: EIGELKAVMEGIKMEHQLELGN
notes: stretch of CLIP2, a reported ASB7 substrate; source: synthetic peptide (Shanghai Apeptide Co., Ltd.)
B11: GST-fused CLIP2 degron peptide (peptide)
chain: SGPGAQQKEIGELKAVMEGIKMEHQLELGNLQAKHDLET
notes: degron stretch of CLIP2; pGEX vector; also called GST-tagged CLIP2; not shown: GST, N-terminal, kept
B12: GST-fused GIGYF1 degron peptide (peptide)
chain: SSAGPPGDLEDDEGLKHLQQEAEKLVASLQDSSLEEEQFT
notes: degron stretch of GIGYF1; pGEX vector; also called GST-tagged GIGYF1; not shown: GST, N-terminal, kept
B13: GST-fused CCDC17 degron peptide (peptide)
chain: GMSRLFGLEQEIRELQAEAGRTRGALEVLGARIQELQAE
notes: degron stretch of CCDC17; pGEX vector; also called GST-tagged CCDC17; not shown: GST, N-terminal, kept
B14: GST-fused CEP152 degron peptide (peptide)
chain: GHCFQELEKAKQECQDLKGKLEKCCRHLQHLERKHK
notes: degron stretch of CEP152; pGEX vector; also called GST-tagged CEP152; not shown: GST, N-terminal, kept
B15: GST-fused LZTS1-degron (peptide)
chain: VLQLQQEKRQLRQELESLMKEQDLLETKLRSYEREKTSFG
notes: degron stretch of LZTS1; pGEX vector; also called GST-tagged LZTS1; not shown: GST, N-terminal, kept

What follows are binders tested against T1, ASB7-Elongin B-Elongin C ternary complex (human, UniProt Q9H672 11-318; Q15370 1-104; Q15369 17-112) (assay: ITC; peptide (0.8–4 mM) titrated into the ASB7 complex (39–156 µM); 16 °C; 20 mM Tris-HCl pH 7.5, 150 mM NaCl; MicroCal PEAQ-ITC). Settings: both partners purified.
T1 construct: ASB7, human, residues 11-318; Elongin B, human, residues 1-104; ASB7 cloned into pET28-MKH8SUMO (Addgene plasmid #79526 is the vector); Elongin B and C in pCDFDuet-1; tag cleaved with TEV protease; also called ASB7-Elongin B/C; wild-type ASB7; source: E. coli BL21 (DE3), co-expressed, purified (Ni-NTA, Superdex 200); not shown: SUMO, N-terminal, cleaved; copies: + +
Target sequence in this assay (Q9H672 11-318, chain 1 of 3): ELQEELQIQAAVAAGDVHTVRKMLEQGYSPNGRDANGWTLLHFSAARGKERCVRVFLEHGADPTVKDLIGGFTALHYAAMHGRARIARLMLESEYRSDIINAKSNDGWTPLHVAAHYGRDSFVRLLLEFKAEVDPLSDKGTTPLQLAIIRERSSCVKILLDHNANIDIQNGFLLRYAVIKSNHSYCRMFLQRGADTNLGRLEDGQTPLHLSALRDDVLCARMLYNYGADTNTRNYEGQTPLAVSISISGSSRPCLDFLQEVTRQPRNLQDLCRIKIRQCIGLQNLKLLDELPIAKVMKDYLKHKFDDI
Target sequence in this assay (Q15370 1-104, chain 2 of 3): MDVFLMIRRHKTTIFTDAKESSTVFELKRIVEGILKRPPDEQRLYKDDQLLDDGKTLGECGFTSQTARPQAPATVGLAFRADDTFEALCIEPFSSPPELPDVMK
Target sequence in this assay (Q15369 17-112, chain 3 of 3): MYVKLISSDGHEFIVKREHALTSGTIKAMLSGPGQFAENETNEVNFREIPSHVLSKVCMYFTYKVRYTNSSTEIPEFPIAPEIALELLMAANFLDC
For B1, the Kd was 1300 nM.

What follows are binders tested against T2, ASB7-Elongin B-Elongin C ternary complex (wild-type ASB7, residues 11-318) (human, UniProt Q9H672 11-318; Q15370 1-104; Q15369 17-112) (assay: ITC; peptide in the syringe titrated into ASB7-Elongin B/C in the cell; MicroCal PEAQ-ITC, 16 °C, 20 mM Tris-HCl pH 7.5, 150 mM NaCl; 39–156 μM protein, 0.8–4 mM peptide; repeated three times, mean ± SD). Settings: both partners purified.
T2 construct: human ASB7, residues 11-318; human Elongin B, residues 1-104; also called ASB7-Elongin B/C; WT; source: E. coli BL21 (DE3), co-expressed, purified (Ni-NTA, Superdex 200); not shown: SUMO, N-terminal, cleaved; copies: + +
T2 sequence (Q9H672 11-318, chain 1 of 3): as the sequence (Q9H672 11-318, chain 1 of 3) above
T2 sequence (Q15370 1-104, chain 2 of 3): as the sequence (Q15370 1-104, chain 2 of 3) above
T2 sequence (Q15369 17-112, chain 3 of 3): as the sequence (Q15369 17-112, chain 3 of 3) above
In the case of B2, the Kd is reported as 1000 nM and the “stoichiometry N” value is reported as 0.78.
B3 was tested, and the “stoichiometry N” value was 1.32.
In the case of B4, the Kd is reported as 700 nM and the “stoichiometry N” value is reported as 0.71.
B5 was tested, and the Kd was 900 nM and the “stoichiometry N” value was 0.91.
In the case of B6, the Kd is reported as 700 nM and the “stoichiometry N” value is reported as 0.68.
In the case of B7, the Kd is reported as 5100 nM and the “stoichiometry N” value is reported as 1.12.
B8 was tested, and the Kd was 1100 nM and the “stoichiometry N” value was 0.76.
In the case of B9, the “stoichiometry N” value is reported as 1.27.
With B10 the Kd was 700 nM and the “stoichiometry N” value was 0.71.

Each binder was assayed against T1, ASB7-Elongin B-Elongin C ternary complex (assay: pull-down; GST or GST-fusion degron peptides (~50 µg) on glutathione magnetic beads, ~30 µg purified ASB7-Elongin B/C added; 20 mM Tris-HCl pH 7.5, 400 mM NaCl, 2 mM β-mercaptoethanol; 4 °C; glutathione elution, Coomassie-stained SDS-PAGE). Settings: both partners purified.
B11: binds.
B12: binds.
B13: binds.
B14: binds.
B15: binds.
